The target of this assay is PROTEOLYSIS1 (PRT1) (Arabidopsis thaliana) (UniProt Q8LBL5).
PROTEOLYSIS1 (PRT1) (Arabidopsis thaliana), sequence (Q8LBL5 whole entry): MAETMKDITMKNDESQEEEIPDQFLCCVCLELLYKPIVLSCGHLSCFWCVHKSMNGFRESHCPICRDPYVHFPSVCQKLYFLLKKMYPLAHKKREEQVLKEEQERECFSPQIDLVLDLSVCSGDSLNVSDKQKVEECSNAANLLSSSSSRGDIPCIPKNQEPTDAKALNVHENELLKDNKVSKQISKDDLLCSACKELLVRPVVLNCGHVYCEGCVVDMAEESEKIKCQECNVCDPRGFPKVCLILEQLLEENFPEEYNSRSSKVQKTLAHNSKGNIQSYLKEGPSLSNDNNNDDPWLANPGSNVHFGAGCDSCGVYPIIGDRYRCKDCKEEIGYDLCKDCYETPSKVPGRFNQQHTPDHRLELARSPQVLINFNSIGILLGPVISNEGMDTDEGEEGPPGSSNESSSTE

E2-conjugating enzyme UBC8, sequence (P35131 whole entry): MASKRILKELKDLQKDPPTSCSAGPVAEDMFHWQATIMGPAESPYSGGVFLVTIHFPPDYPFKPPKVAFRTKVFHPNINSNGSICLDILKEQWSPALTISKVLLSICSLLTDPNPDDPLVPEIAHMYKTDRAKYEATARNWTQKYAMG

Substance “E2-conjugating enzyme UBC8 (from UniProt P35131 1-148)” showed a Michaelis-Menten constant (K M) of substrate ubiquitination by PRT1 at different E2 concentrations (fluorescence polarization of the F-eK-Flv-NBD substrate, UBC8 up to 2 μM) of 0.08 µM.

(Values after PMC5763331.)
